The text below walks through data of a protein production outcome set (Wang et al. 2014).

The data set can be described thus: label from the status in PepcDB records.
With “MEPANMTVAEYLNYWLDTYPKNNVAPSTYRRYTEFAAHIKTHIGGIMMPKLKPAHIQSFYSSLLEKNLSKSTVLKIHRMLHLALKHAVNWQIIISNPTDAVTLEHHHHHH”, the protein production entry is recorded as “failed”.

In the case of “MEPISARSMISAAATEAVVASGDGAPRVERRKRLSPAALAVANQKVPPAFSPIVIAGSVRLADFLVIAAVGIALYFALVVRRDGFAWEYIAAILGTTATAVVAFQAADLYEVQLFRGTLKQMTRIISTWSIVFLLFIGASFFAKLGGEVSRLWLGSFFFAGLALLIIERLSVRALVRRWASQGRLDRRTVIVGADANGAKLIEALKAEHADASDIRILGVFDDRNDARSQSTCAGVPKLGKVDDIPEFARRTRVDLVLFALPISAETRILDMLKKLWVLPVDIRLSAHTNKLRFRPRAYSYVGKVPTLDVFEAPITDWDQVIKQVFDRVVGGFILLLAAPVMALVALAIKLDSPGPVLFRQKRFGFNNERIDVLKFRSMYHDQADPTASKVVTRNDPRVTRVGRFIRRTSLDELPQLFNVVFKGNLSLVGPRPHAVQGKLQSQLFDEAVDGYFARHRVKPGITGWAQINGWRGEIDNEEKIQKRVEFDLYYIENWSVLFDLYILLRTPWALLKGENAY”, the protein production result was “failed”.

With “MEPITQAFAQQFSREWIDAWNAHDLDAILSHYADGFEMSSPMIVQIAGEPSGRLRGKEQVGAYWREALRMIPDLHFEWIATLAGVDSVAIHYRGAKGRLALEVFHFGPDRRVVKALAHYAG”, the protein production result is reported as “not failed”.

As for “MEPKDTTTNDAFKGFTNTACPFLPCHKGVKREFNCLFCYCPLIAYECPGPYQVYTDKNGLTRKDCTNCTLPHDGYLASWNFIQKWLERPVIWSGAAQTTPPTRRPGRAPGDGDEELEHHHHHH”, the protein production result was “not failed”.

“MEPLGNRRPCSVCITKNRNCPRFCEYAEYFPYELQSQYESANELFGTPNIITMMQHAPEEKKQMLATSIIMEGNAWTEDPISGGFGMIQKLMWKIMLHKAYLRELQEKIKEEKEKKPASSLY”: the protein production result was “failed”.

For “MEPLTALAQSLGLAFASGISAYAAAAFVGLAGHLGWIGPLPGALGVLTDPWVFGTAGALALVEALAMLVPGIATAWEAIHTAIRPFAAAALAVLATWGEPRLAVVAALLGGALGLATHATKLGLRATIDTSPEPVTNAAATTGELGVVAALAWAIWAHPWIALAAALVLLTALLYVVRALWRTVARAIAALFSPPTAPGS”, the protein production entry is listed as “failed”.

For “MEPQEEFITTEEVEQEIVPTVEVEQDVPVDIEGENDDDDEMMNDDEEALEVDMSNNSLTYFDKHTDSVFAIGHHPNLPLVCTGGGDNLAHLWTSHSQPPKFAGTLTGYGESVISCSFTSEGGFLVTADMSGKVLVHMGQKGGAQWKLASQMQEVEEIVWLKTHPTIARTFAFGATDGSVWCYQINEQDGSLEQLMSGFVHQQDCSMGEFINTDKGENTLELVTCSLDSTIVAWNCFTGQQLFKITQAEIKGLEAPWISLSLAPETLTKGNSGVVACGSNNGLLAVINCNNGGAILHLSTVIELKPEQDELDASIESISWSSKFSLMAIGLVCGEILLYDTSAWRVRHKFVLEDSVTKLMFDNDDLFASCINGKVYQFNARTGQEKFVCVGHNMGVLDFILLHPVANTGTEQKRKVITAGDEGVSLVFEVPN”, the protein production result is given as “failed”.

With “MEPSGGEQEPGAVRFLDLPWEDVLLPHVLNRVPLRQLLRLQRVSRAFRSLVQLHLAGLRRFDAAQVGPQIPRAALARLLRDAEGLQELALAPCHEWLSDEDLVPVLARNPQLRSVALGGCGQLSRRALGALAEGCPRLQRLSLAHCDWVDGLALRGLADRCPALEELDLTACRQLKDEAIVYLAQRRGAGLRSLSLAVNANVGDAAVQELARNCPELHHLDLTGCLRVGSDGVRTLAEYCPVLRSLRVRHCHHVAESSLSRLRKRGVDIDVEPPLHQALVLLQDMAGFAPFVNLQV”, the protein production result was “not failed”.

Regarding “MEPTGLMVAAPTASLPEAIGGERNWDYRFTWIRDTAYVIEALSSIGYKYEATEFLYDMMDMITRDNRIRTIYSIDDSNDLEERIIDYEGYRGSRPVRIGNKAVDQLQIDQYGSIVRAIHSMAKAGGIVNSYLWDFVEQVMAKIEYLWKYPDSSIWEFRTEPKQYVYSKVMSWAAFDSAISMAKDLGLSAPIKQWKSIQDEIKKEVLEKGFDTDTNSFVQYYGSKNIDAALLRLPILGFIPANDEKFLGTLSRIEKELMVDGYLFKRYREDDGLKGDEGSFLMLTFWYIEDLILMKRLKKAREVLESVLEKANHLGLYSEEIDEKSGDFLGNFPQALSHLGVIRVAPKLEEALLLEHHHHHH”, the protein production entry is “failed”.

Regarding “MEQGAATADKEDFNARGKPTLFQLSFPLLLHSLLSFFVNLADTAIISAYSAEAAAAVAVAKQVMMIAFELSGLVGIGAVIVISRHLGRGEVEAARQVVAVALLTNTLVGLALGLSLMVAGPLVLEQLAGSTSLNDEAGLYLNIVAVGMVFNGFIAAGLACLRAFGHSRLILAFGVGVSAFYLLAEWVLILGVGPLPGMGVKGAALGTFSIRVMTTAILTPVLMWKLGLRFSFSDTVARFATARRMIAIALPSVTDYIAYSFYQIILLGLVARFGVEAVLGRTYTMLAMAFLIVVVMAISQSNEVLIGYRFGERRLEAATSQALRSASLAAAATTSIATLIWLASVPYIRLFTDNPAVIELCGSLLFLTIFIQPGFAFNTILFQSLRAVGDVRWPVFVSLTVTWGLGLSTAWFFCLFLNLGVTGVWLSLIIEETVKGSLFLHRWLSRGVRHEAG”, the protein production result was “failed”.

As to “MEQQHPTIHTLKIETEFFKAVKERRKTFEIRKNDRNFQVGDILILEEYMNGMYLDDECEAEVIYITDYAQREGYVVLGIELH”, the protein production entry is “not failed”.

With “MEQRLLNANERSTYGKNAAVKMRKAGRIPAVMYDRHGKSVPIDVDEREFMKLFKLVTESTIVTLNAAGKDYEVFIKDFQHDIVSDKIKHIDFYEVERGKTLRTKVKIRLEGSPEGVRHGGILETGITELELECLPKDLPARIIVDVSALDVNQSLHVRDIKLPEAVTVLTSDDITVAAIKFAAAESTTPAATEGEETEAAAAAPEPAAEDK”, the protein production result is on record as “failed”.

Take “MEQTHLKYEQLKAILREMGSVLVAFSGGVDSTFLLRVAHGLLGDKAVAFTATSPTYPESEFREAVGLARSMGARQVVVESNELEIPGFAFNPRNRCYHCKKELFGLCGRTAAELGLAWVADGSNCDDLDDYRPGRAAAGELGVRSPLVEAGLTKADIRELSRELGLPTWDKQAFACLSSRFPYGTEITPERLRMVGACEEFLRENGFRVYRVRFHGDTARIETAPEEIPRLFDPSLRLRIAAFFREAGFAHVAVDLEGYRTGSMNTDAG”: the protein production entry was “failed”.

As for “MEQTQQNHFTALFYKNVLLGILSMAAQSIFILADTFFIANGIGTEALAGLNIVLPLVNIINGLGWMFGVGGATLFSTTVAQKEIKKANQYFSLTIGLVFVIGRLFTLVSLIFSDQIIRGLQGTGVLFGLAKEYYMIYLSCSLLFILNNCLITFLRNDHNPRLATIAFVSGGIVNIILDYVFIYQFGWGMAGAAIATVMSPLTSLILITLHKWSPQRVLRFEKFKVKFQDVREIMSIGFSSFLNEFSSAFVMFLFNIVLLNLVGHVAISAYAIVANLNIIVIAIFTGIGQGAQPLLSRYYGLGETKVLRKFVKLSFITYLVAGFLFFLISQVFTGQIIEVFNSEGNDQLAQIARTAIRLYAISFLFTGLNFMGIYYFSAVRKPKMALMISSLRGFFLIVPVLFILVKLLGLTGVWLAMPVVEFVTFGLMLVGYLAYRNYLKKREAVT”, the protein production entry was “failed”.

Consider “MEQWDHFHNQQEDTDSCSESVKFDARSMTALLPPNPKNSPSLQEKLKSFKAALIALYLLVFAVLIPLIGIVAAQLLKWETKNCSVSSTNANDITQSLTGKGNDSEEEMRFQEVFMEHMSNMEKRIQHILDMEANLMDTEHFQNFSMTTDQRFNDILLQLSTLFSSVQGHGNAIDEISKSLISLNTTLLDLQLNIENLNGKIQENTFKQQEEISKLEERVYNVSAEIMAMKEEQVHLEQEIKGEVKVLNNITNDLRLKDWEHSQTLRNITLIQGPPGPPGEKGDRGPTGESGPRGFPGPIGPPGLKGDRGAIGFPGSRGLPGYAGRPGNSGPKGQKGEKGSGNTLTPFTKVRLVGGSGPHEGRVEILHSGQWGTICDDRWEVRVGQVVCRSLGYPGVQAVHKAAHFGQGTGPIWLNEVFCFGRESSIEECKIRQWGTRACSHSEDAGVTCTL”, for which the protein production entry was “failed”.

As for “MEQYSEACIEACIDCMKACNHCFTKCLEESVQHHLSGCIRLDRECADICALAVKAMQTDSPFMKEICALCADICEACGTECGKHDHDHCQACAKACFTCAEQCRSMAALEHHHHHH”, the protein production result is recorded as “failed”.

As for “MERAVPLAVPLGQTEVFQALQRLHMTIFSQSVSPCGKFLAAGNNYGQIAIFSLSSALSSEAKEESKKPVVTFQAHDGPVYSMVSTDRHLLSAGDGEVKAWLWAEMLKKGCKELWRRQPPYRTSLEVPEINALLLVPKENSLILAGGDCQLHTMDLETGTFTRVLRGHTDYIHCLALRERSPEVLSGGEDGAVRLWDLRTAKEVQTIEVYKHEECSRPHNGRWIGCLATDSDWMVCGGGPALTLWHLRSSTPTTIFPIRAPQKHVTFYQDLILSAGQGRCVNQWQLSGELKAQVPGSSPGLLSLSLNQQPAAPECKVLTAAGNSCRVDVFTNLGYRAFSLSF”, the protein production result was “failed”.

With “MERAVVQRARPLARRPLVTLLTAAALAASGLTALTSAARAADADLARNGGFESALDGWTCTAGTTVTSPVHGGTSALKATPAGADNARCSQTVSVKPDSPYTLSGYVRGTYVYLGASGTGTTDVSTWAQSAPDWQQLTTTFRTGPSTTRVTIYTHGWYGTGAYHADDISLTGPGGETQQPPAVPGGLKTGSVTSSAVALSWSPVPGATGYAVYRDGAKVSTVTGTSTTVTGLTPSTAYSFQVTAVNDAGESARSATVTATTAQRPDDGGGSSDLPAHALVGYLHASFANGSGYTRMADVPDSWDVIDLAFGEPTSVTSGDIRFERCPVAECPNVESDAEFKAAIKAKQAAGKKVLISIGGQNGQVQLTSTAARDKFVSSVSAIIDEYGLDGLDIDFEGHSLSLNADDTDFKNPKTPVIVNLVSAVKTLKAKYGDGFVLTMAPETFFVQLGYQYYGTGKWGGQDPRAGAYLPVIHALRDDLTLLHVQDYNSGSIMGLDNQYHSMGGADFHIAMTDMLLTGFPVAGDANNVFPPLRPDQVAIGMPASTQAGNGHVSPAEVTKALNCLTKKTDCGSYATHGTWPDLRGLMTWSINWDRYSNWEFQKNFDAYFG”, the protein production result is listed as “failed”.

Consider “MERIEAGMSVMTLKKQTYRVIAVINQGQELLVRAHEPETADIEIIPVTTVVQVTEQNSTGDAAVALDTVTVVGERYVDDIVATLTTLRVGMAVLLQRESGNQYDDNAISVWTLQHAKLGYIARYQNQPYATLMDQGQRLYGIVTVLDQQKQHLELMLWRTTAVPSPIEALQIRQRLAKPRTNLGAVPTHSLQTPLGTIVMMCNGHPIKYQQVPLSPWLTPADELHVTKRYLLTPDWSQVPPDSLITCQVTAKADVVQRWQNEHISAAVLTNASSFYVVGISAQTKTGLNDNLVDDAAQPAVIYRVGQVSAHMQAGFMVSWAPFGDPRVQPALKLALHFSSQPLVPYHPVTPSRTNATFTQQELAALLVSALPNYQGGQRLEPSVTTITVEKLRQTLGDQTYHALANYQRHVQLVAGSTEGVNETLLQALIHAVTYHELTTMHYYQPTVGMVDQVIYPIQLFSTTTKDEDDAQLVGCLALYNYETFEIQQVPLTAIARIAIIADPEHPQTTPETESPDWLRIFLHGWNDDFLEHHHHHH”, for which the protein production result is “not failed”.

With “MERIETIPTDKEHLSQDEVIRLASTPCSAPALKRAFLFSCLTALRKSDIKKLTWEEIQPYGSDGVMYVTTRMQKTKDIVHNPISEEALELIGYSPDKRGKVFPDFKDSMTQAPLKNWLKDAGITKHISYHCSRHSFACLQLDAGTSIAVVQRYLGHKNVATTEVYAKISDAQKRASVGLEHHHHHH”, the protein production entry was “not failed”.
